For one substance, Kd, koff and kon results are on record in patent US20090312249A1.

The target in test [1] is MD-2 (myeloid differentiation protein-2) (UniProt Q9Y6Y9). Nature of the test: SPR (BIAcore 3000), TFL amine-coupled on CM5 chip, MD-2 8-250 nM as analyte, 1:1 Langmuir model, 25 C. In general terms: SPR reads the build-up and loss of mass on a sensor chip optically.
The target is the same in test [2]. The test can be described thus: SPR (BIAcore 3000): TFL amine-coupled on a CM5 chip, MD-2 at 8 to 250 nM as analyte, 25 C, 1:1 Langmuir fit.

Sequence of UniProt Q9Y6Y9 (Q9Y6Y9 19-160 limits assumed): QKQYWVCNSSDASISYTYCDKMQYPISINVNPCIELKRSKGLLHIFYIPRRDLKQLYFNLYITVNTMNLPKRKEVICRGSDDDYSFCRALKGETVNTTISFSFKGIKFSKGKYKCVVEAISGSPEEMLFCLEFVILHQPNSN

By Kd is commonly meant the free concentration of one partner at which half of the binding sites on the other are occupied at equilibrium, for simple one-to-one binding. Low readings indicate a tighter complex, high ones a looser complex. As a reminder, the koff is the rate constant with which the complex falls apart. Low readings indicate slow dissociation, high ones fast dissociation. The kon is a measure of how fast the partners come together. The low end stands for slower complex formation, the high end for faster complex formation. With “TFL (Fc-tagged hTLR4 full-length ectodomain) (Fc fusion)”, the Kd in test [1] amounted to 0.081 µM. For the same substance, in test [2], the dissociation constant Kd amounted to 0.0811 µM, the koff was 0.00187 s⁻¹ and the kon turned out to be 23100 M⁻¹ s⁻¹.
